The target of assay [1] is VPS26A residues 1–317, the VPS26 part of the fusion VPS26(1–317)-DMT1(545–568) (human, UniProt O75436-1 1-317). Kind of assay: crystal structure.
The target in a further assay is full-length human SNX3 (human, UniProt O60493-1 1-162). Nature of the assay: crystal structure.

Consider three molecules from article PMC5147500 (Cell, 2016).

Non-standard residues stand in square brackets, D forms with d. No end group written: not given here. SeMet = C[Se]CC[C@H](N)C(=O)O

In the case of {VPS26(1–317)}-HLGLTAQPELYLLNTMDADSLVSR (peptide, UniProt P49281 545-568, looked up) [DMT1-II recycling signal residues 545–568, the DMT1 part of the fusion VPS26(1–317)-DMT1(545–568)], in assay [1], the binding result was “binds”.

{VPS26(1–321)}-TAQPELYLLNT[SeMet] (peptide, UniProt P49281 549-560, looked up) [DMT1-II recycling signal residues 549–560, the DMT1 part of the fusion VPS26(1–321)-DMT1(549–560)]: in the assay with full-length human SNX3, the binding result was “binds”.

As for {VPS26(1–321)}-TAQPELYL[SeMet]NT[SeMet] (peptide, UniProt P49281 549-560, looked up), the binding result with full-length human SNX3 was “binds”.
